The record followed here is US20240270821A1, “GIP/GLP1/GCG TRI-RECEPTOR AGONISTS AND USES THEREOF” (priority 2023, published 2024).

Assay in all cases: cell-based or functional assay
Assay [1] has as its target T1, human GIP receptor (human) (UniProt P48546).
T1 sequence (looked up): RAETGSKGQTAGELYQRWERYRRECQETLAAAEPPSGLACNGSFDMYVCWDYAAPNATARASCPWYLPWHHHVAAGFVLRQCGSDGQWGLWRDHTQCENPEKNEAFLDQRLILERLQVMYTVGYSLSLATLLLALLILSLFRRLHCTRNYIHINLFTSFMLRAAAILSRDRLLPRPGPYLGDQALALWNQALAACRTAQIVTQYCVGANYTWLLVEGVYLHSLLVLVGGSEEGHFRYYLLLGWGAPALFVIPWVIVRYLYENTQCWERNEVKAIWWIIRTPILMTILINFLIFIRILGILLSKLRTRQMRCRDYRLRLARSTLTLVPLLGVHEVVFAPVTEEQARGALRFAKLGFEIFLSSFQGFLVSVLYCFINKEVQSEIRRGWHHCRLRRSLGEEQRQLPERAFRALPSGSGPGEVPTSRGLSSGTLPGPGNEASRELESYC

Another assay addresses hGLP-1R (Homo sapiens, UniProt P43220).
The target of assay [2] is human glucagon receptor (human) (UniProt P47871).
Sequence of human glucagon receptor (human) (P47871 26-477): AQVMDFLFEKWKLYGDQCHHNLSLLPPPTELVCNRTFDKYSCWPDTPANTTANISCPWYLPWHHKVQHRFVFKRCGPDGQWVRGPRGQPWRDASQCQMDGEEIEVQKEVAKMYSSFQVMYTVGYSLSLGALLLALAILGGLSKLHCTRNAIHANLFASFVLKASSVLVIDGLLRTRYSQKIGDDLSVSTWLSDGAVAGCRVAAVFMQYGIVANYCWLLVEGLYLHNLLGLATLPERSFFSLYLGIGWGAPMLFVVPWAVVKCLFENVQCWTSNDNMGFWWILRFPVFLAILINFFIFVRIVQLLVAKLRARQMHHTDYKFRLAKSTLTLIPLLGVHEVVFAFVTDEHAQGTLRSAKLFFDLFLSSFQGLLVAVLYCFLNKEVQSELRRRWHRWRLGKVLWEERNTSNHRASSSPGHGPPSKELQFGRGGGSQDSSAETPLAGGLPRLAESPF

Starred links: 1 amine or outer side, 2 acyl side, 3 side chain; linkers in the order of their positions; H or OH if unused. Non-standard residues stand in square brackets, D forms with d. Groups on a side chain read outwards from the residue. No end group written: not given here. *: point of attachment. C18 diacid = O=C(O)CCCCCCCCCCCCCCCCC(=O)*; γGlu = O=C(O)[C@H](CCC(=O)[*:2])N[*:1]; αMeL = CC(C)C[C@](C)(N)C(=O)O; Dab = NCC[C@H](N)C(=O)O; AEEA = NCCOCCOCC(=O)O; Aib = CC(C)(N)C(=O)O

Sequence of hGLP-1R (P43220 24-463): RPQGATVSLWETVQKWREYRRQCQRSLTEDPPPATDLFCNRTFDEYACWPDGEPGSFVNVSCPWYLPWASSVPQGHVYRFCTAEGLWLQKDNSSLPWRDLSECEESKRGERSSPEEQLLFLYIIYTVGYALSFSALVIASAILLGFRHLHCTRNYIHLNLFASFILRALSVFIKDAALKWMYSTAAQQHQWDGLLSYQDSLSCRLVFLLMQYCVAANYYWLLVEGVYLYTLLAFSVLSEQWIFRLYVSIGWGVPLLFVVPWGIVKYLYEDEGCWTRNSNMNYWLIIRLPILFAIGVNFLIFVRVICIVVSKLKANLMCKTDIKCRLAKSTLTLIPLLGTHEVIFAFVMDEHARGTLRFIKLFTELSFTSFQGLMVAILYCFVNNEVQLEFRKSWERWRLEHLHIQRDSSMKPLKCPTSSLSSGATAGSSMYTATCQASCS

B1: Example 123 (peptide)
chain: YXQGTFTSDFSXXLDKKAQXAFIEWLLEGGESSGEPPPSGE
modifications: synthetic construct; SITE 2: note = 2-Aminoisobutyric Acid; SITE 12: note = L-ornithine; SITE 13: note = alpha-methyl-leucine; SITE 17: note = Lysine is chemically modified through conjugation of the epsilon-amino group of the Lysine side chain with (2-[2-(2-Amino-ethoxy)-ethoxy]-acetyl)-(gamma-Glu)
For B1, the Relative cAMP EC50 in assay [1] is 0.531 nM; in the assay with hGLP-1R, 4.82 nM; in assay [2], 4.55 nM. Besides, the cAMP Rel EC50, nM (in the presence of 1% HSA) in assay [1] is 94.6 nM; with hGLP-1R it was 1500 nM; in assay [2], 1740 nM.

B2: Example 127 (peptide)
chain: YXQGTFTSDFSXXLDKKAQXAFIEWLLEGGHSSGEPPPEGS
modifications: synthetic construct; SITE 2: note = 2-Aminoisobutyric Acid; SITE 12: note = L-ornithine; SITE 13: note = alpha-methyl-leucine; SITE 17: note = Lysine is chemically modified through conjugation of the epsilon-amino group of the Lysine side chain with (2-[2-(2-Amino-ethoxy)-ethoxy]-acetyl)-(gamma-Glu)
In the case of B2, the Relative cAMP EC50 in assay [1] is 0.312 nM; in the assay with hGLP-1R, 4.8 nM; in assay [2], 4.35 nM. The cAMP Rel EC50, nM (in the presence of 1% HSA) in assay [1] was determined as 62.9 nM; with hGLP-1R it was 1000 nM; in assay [2] it was 1010 nM.

B3: Example 150 (peptide)
chain: YXQGTFTSDFSQXLDKKAQXAFIEYLLEGGPSSGAPPPSGS
modifications: Aib, αMeL; lipidated Lys; C-terminal amide; synthetic construct; SITE 2: note = 2-Aminoisobutyric Acid; SITE 13: note = alpha-methyl-leucine; SITE 17: note = Lysine is chemically modified through conjugation of the epsilon-amino group of the Lysine side chain with (2-[2-(2-Amino-ethoxy)-ethoxy]-acetyl)-(gamma-Glu)-CO-(CH2) 16-CO2H; SITE 20: n
As to B3, the Relative cAMP EC50, nM (0.1% casein) in assay [1] turned out to be 0.346 nM; with hGLP-1R it was 2.63 nM; in assay [2], 5.37 nM. The cAMP Rel EC50, nM (1% HSA) in assay [1] came out at 50.6 nM; with hGLP-1R it was 463 nM; in assay [2], 1920 nM.

B4: Example 144 (peptide)
chain: YXQGTFTSDFSRXLDKKAQXAFIEYLLEGGPSSGAPPPSGS
modifications: synthetic construct; SITE 2: note = 2-Aminoisobutyric Acid; SITE 13: note = alpha-methyl-leucine; SITE 17: note = Lysine is chemically modified through conjugation of the epsilon-amino group of the Lysine side chain with (2-[2-(2-Amino-ethoxy)-ethoxy]-acetyl)2-(gamma-Glu)-CO-(CH2 )16-CO2H; SITE 20:
With B4, the Relative cAMP EC50 in assay [1] turned out to be 0.23 nM; in the assay with hGLP-1R, 4.02 nM; in assay [2] it was 14.8 nM. The results for the cAMP Rel EC50, nM (in the presence of 1% HSA) (in assay [1]; in the assay with hGLP-1R; in assay [2]) were 46.2 nM, 990 nM and 2600 nM, respectively.

B5: Example 128 (peptide)
chain: YXQGTFTSDFSXXLDKKAQXAFIEYLLEAGPSSGAPPPSGE
modifications: synthetic construct; SITE 2: note = 2-Aminoisobutyric Acid; SITE 12: note = L-ornithine; SITE 13: note = alpha-methyl-leucine; SITE 17: note = Lysine is chemically modified through conjugation of the epsilon-amino group of the Lysine side chain with (2-[2-(2-Amino-ethoxy)-ethoxy]-acetyl)2-(gamma-Glu)
For the molecule B5, the values for the Relative cAMP EC50 (in assay [1]; with hGLP-1R; in assay [2]) were 0.307 nM, 3.5 nM and 6.76 nM, respectively. The figures for the cAMP Rel EC50, nM (in the presence of 1% HSA) (in assay [1]; in the assay with hGLP-1R; in assay [2]) were 24.3 nM, 679 nM and 1090 nM, respectively.

B6: Example 147 (peptide)
chain: YXQGTFTSDFSKXLDKKAQXAFIEYLLEGGESSGAPPPSGS
modifications: Aib, αMeL, (AEEA)2-γGlu-C18 diacid lysine acylation, C-terminal amide; synthetic construct; SITE 2: note = 2-Aminoisobutyric Acid; SITE 13: note = alpha-methyl-leucine; SITE 17: note = Lysine is chemically modified through conjugation of the epsilon-amino group of the Lysine side chain with (2-[2-(2-Amino-ethoxy)-ethoxy]-acetyl)2-(gamma-Glu)-CO-(CH2 )16-CO2H; SITE 20:
Turning to B6, the Relative cAMP EC50, nM (0.1% casein) in assay [1] was found to be 0.343 nM; with hGLP-1R, 4.26 nM; in assay [2], 4.39 nM. The cAMP Rel EC50, nM (1% HSA) in assay [1] worked out at 108 nM; with hGLP-1R, 964 nM; in assay [2] it was 877 nM.

B7: Example 145 (peptide)
chain: YXQGTFTSDFSXXLDKKAQXAFIEYLLEGGESSGAPPPSGS
modifications: synthetic construct; SITE 2: note = 2-Aminoisobutyric Acid; SITE 12: note = L-ornithine; SITE 13: note = alpha-methyl-leucine; SITE 17: note = Lysine is chemically modified through conjugation of the epsilon-amino group of the Lysine side chain with (2-[2-(2-Amino-ethoxy)-ethoxy]-acetyl)-(gamma-Glu)
Turning to B7, the Relative cAMP EC50 in assay [1] amounted to 0.539 nM; with hGLP-1R, 4.26 nM; in assay [2] it was 3.14 nM. For the same molecule, the cAMP Rel EC50, nM (in the presence of 1% HSA) in assay [1] was determined as 108 nM; in the assay with hGLP-1R, 1480 nM; in assay [2], 693 nM.

B8: Example 135 (peptide)
chain: YXQGTFTSDFSXXLDKKAQXAFIEYLLEAGPSSGEPPPSGE
modifications: synthetic construct; SITE 2: note = 2-Aminoisobutyric Acid; SITE 12: note = L-ornithine; SITE 13: note = alpha-methyl-leucine; SITE 17: note = Lysine is chemically modified through conjugation of the epsilon-amino group of the Lysine side chain with (2-[2-(2-Amino-ethoxy)-ethoxy]-acetyl)-(gamma-Glu)
As to B8, the Relative cAMP EC50 stood at 0.246 nM in assay [1], 3.3 nM with hGLP-1R and 2.53 nM in assay [2]. In addition, the cAMP Rel EC50, nM (in the presence of 1% HSA) was found to be 23.4 nM in assay [1], 472 nM in the assay with hGLP-1R and 557 nM in assay [2].

B9: Example 149 (peptide)
chain: YXQGTFTSDFSRXLDKKAQXAFIEYLLEGGESSGAPPPSGS
modifications: Aib, alpha-methyl-Leu, lipidated Lys, C-terminal amide; synthetic construct; SITE 2: note = 2-Aminoisobutyric Acid; SITE 13: note = alpha-methyl-leucine; SITE 17: note = Lysine is chemically modified through conjugation of the epsilon-amino group of the Lysine side chain with (2-[2-(2-Amino-ethoxy)-ethoxy]-acetyl)2-(gamma-Glu)-CO-(CH2 )16-CO2H; SITE 20:
Take B9: the Relative cAMP EC50, nM (0.1% casein) turned out to be 0.46 nM in assay [1], 3.85 nM with hGLP-1R and 12.6 nM in assay [2]. Moreover, the cAMP Rel EC50, nM (1% HSA) is 44.9 nM in assay [1], 801 nM with hGLP-1R and 1420 nM in assay [2].

B10: Example 124 (peptide)
chain: YXQGTFTSDFSXXLDKKAQXAFIEWLLEGGHSSGEPPPSGE
modifications: synthetic construct; SITE 2: note = 2-Aminoisobutyric Acid; SITE 12: note = L-ornithine; SITE 13: note = alpha-methyl-leucine; SITE 17: note = Lysine is chemically modified through conjugation of the epsilon-amino group of the Lysine side chain with (2-[2-(2-Amino-ethoxy)-ethoxy]-acetyl)-(gamma-Glu)
With B10, the Relative cAMP EC50 is 0.344 nM in assay [1], 6.14 nM in the assay with hGLP-1R and 2.92 nM in assay [2]. Also, the cAMP Rel EC50, nM (in the presence of 1% HSA) was 54.7 nM in assay [1], 801 nM with hGLP-1R and 567 nM in assay [2].

B11: Example 130 (peptide)
chain: YXQGTFTSDFSXXLDKKAQXAFIEYLLEGGPSSGAPPPEGS
modifications: synthetic construct; SITE 2: note = 2-Aminoisobutyric Acid; SITE 12: note = L-ornithine; SITE 13: note = alpha-methyl-leucine; SITE 17: note = Lysine is chemically modified through conjugation of the epsilon-amino group of the Lysine side chain with (2-[2-(2-Amino-ethoxy)-ethoxy]-acetyl)-(gamma-Glu)
Take B11: the results for the Relative cAMP EC50 (in assay [1]; with hGLP-1R; in assay [2]) were 0.411 nM, 4.29 nM and 3.74 nM, respectively. In addition, the values for the cAMP Rel EC50, nM (in the presence of 1% HSA) (in assay [1]; with hGLP-1R; in assay [2]) were 60.5 nM, 865 nM and 1080 nM, respectively.

B12: Example 27 (peptide)
chain: YXQGTFTSDFSKXLDKKAQXAFIQYLLAGGPSSGEPPPSEG
modifications: Aib, αMeL, acylated Lys, C-terminal amide; synthetic construct; SITE 2: note = 2-Aminoisobutyric Acid; SITE 13: note = alpha-methyl-leucine; SITE 17: note = Lysine is chemically modified through conjugation of the epsilon-amino group of the Lysine side chain with (2-[2-(2-Amino-ethoxy)-ethoxy]-acetyl)-(gamma-Glu)-CO-(CH2) 18-CO2H; SITE 20: n
As for B12, the values for the Relative cAMP EC50 (in assay [1]; with hGLP-1R; in assay [2]) were 0.41 nM, 2.33 nM and 8.91 nM, respectively. Further, the results for the cAMP Rel EC50 (in the presence of 1% HSA) (in assay [1]; with hGLP-1R; in assay [2]) were 72.3 nM, 464 nM and 1180 nM, respectively.

B13: Example 47 (peptide)
chain: YXQGTFTSDFSKXLDKKAQXAFIEYLLEGAPSSGAPPPSEG
modifications: synthetic construct; SITE 2: note = 2-Aminoisobutyric Acid; SITE 13: note = alpha-methyl-leucine; SITE 17: note = Lysine is chemically modified through conjugation of the epsilon-amino group of the Lysine side chain with (2-[2-(2-Amino-ethoxy)-ethoxy]-acetyl)-(gamma-Glu)-CO-(CH2) 18-CO2H; SITE 20: n
As for B13, the Relative cAMP EC50 is 0.388 nM in assay [1], 3.4 nM in the assay with hGLP-1R and 5.61 nM in assay [2].

B14: Example 142 (peptide)
chain: YXQGTFTSDFSKXLDKKAQXAFIEYLLEGGPSSGAPPPSGS
modifications: synthetic construct; SITE 2: note = 2-Aminoisobutyric Acid; SITE 13: note = alpha-methyl-leucine; SITE 17: note = Lysine is chemically modified through conjugation of the epsilon-amino group of the Lysine side chain with (2-[2-(2-Amino-ethoxy)-ethoxy]-acetyl)2-(gamma-Glu)-CO-(CH2 )16-CO2H; SITE 20:
In the case of B14, the results for the Relative cAMP EC50 (in assay [1]; with hGLP-1R; in assay [2]) were 0.216 nM, 4.37 nM and 3.49 nM, respectively. Also, the results for the cAMP Rel EC50, nM (in the presence of 1% HSA) (in assay [1]; in the assay with hGLP-1R; in assay [2]) were 14.1 nM, 391 nM and 1230 nM, respectively.

B15: Example 131 (peptide)
chain: YXQGTFTSDFSXXLDKKAQXAFIEYLLEGGPSSGEPPPSGS
modifications: synthetic construct; SITE 2: note = 2-Aminoisobutyric Acid; SITE 12: note = L-ornithine; SITE 13: note = alpha-methyl-leucine; SITE 17: note = Lysine is chemically modified through conjugation of the epsilon-amino group of the Lysine side chain with (2-[2-(2-Amino-ethoxy)-ethoxy]-acetyl)-(gamma-Glu)
As to B15, the Relative cAMP EC50 in assay [1] stood at 0.416 nM; with hGLP-1R, 5.51 nM; in assay [2] it was 2.64 nM. The cAMP Rel EC50, nM (in the presence of 1% HSA) came to 91.8 nM in assay [1], 984 nM with hGLP-1R and 976 nM in assay [2].

B16: Example 133 (peptide)
chain: Y[Aib]QGTFTSDFS[Dab][αMeL]LDKK([AEEA-γGlu-C18 diacid])AQ[Aib]AFIEYLLE[Aib]GPSSGAPPPSGS-NH2
modifications: ends and bridges not checked
B16: the results for the Relative cAMP EC50 (in assay [1]; with hGLP-1R; in assay [2]) were 0.15 nM, 3.6 nM and 1.64 nM, respectively. In addition, the cAMP Rel EC50, nM (in the presence of 1% HSA) is 23.1 nM in assay [1], 1180 nM in the assay with hGLP-1R and 642 nM in assay [2].
